Measurements as given in paper PMC3034353.

What was measured:
[1] = molecular target: Bacillus subtilis τ protein (wild type) (B. subtilis) (UniProt P09122); assay: SEC
[2] = molecular target: Bacillus stearothermophilus DnaB helicase (B. stearothermophilus) (UniProt Q9X4C9); assay: AUC
[3] = molecular target: Bacillus subtilis τ protein L381A mutant (B. subtilis) (UniProt P09122); assay: SEC
[4] = molecular target: Bacillus subtilis τ protein L381A mutant (B. subtilis) (UniProt P09122); assay: AUC
[5] = molecular target: Bacillus subtilis τ protein L381P mutant (B. subtilis) (UniProt P09122); assay: SEC

With “Bacillus subtilis τ protein (wild type) (from UniProt P09122 1-563) (natural protein)” the stoichiometry N [1] was 4 and the stoichiometry N (τ pentamer per DnaB hexamer) [2] was 1.

Work on “Bacillus subtilis τ protein L381A mutant (from UniProt P09122 1-563) (natural protein)” yielded a stoichiometry N [3] of 3 and a stoichiometry N [4] of 4.

“Bacillus subtilis τ protein L381P mutant (from UniProt P09122 1-563) (natural protein)” was tested, and the stoichiometry N [5] was 3.
